Reference: PMC5036196, “Structural and histone binding ability characterization of the ARB2 domain of a histone deacetylase Hda1 from Saccharomyces cerevisiae” (Scientific Reports, 2016)

How the values were obtained:
[1] = target: the molecule itself; experiment: SEC; Superdex 200 10/300 GL, 0.5 ml/min, 25 mM Tris-HCl pH 7.5, 200 mM NaCl; apparent molecular mass against standard proteins
[2] = target: yeast histone H3-H4 tetramer (Saccharomyces cerevisiae, UniProt P61830 1-136; P02309 1-103); experiment: ITC; ITC200 at 20 °C; 0.5 mM ARB2 or mutant in the injector, 0.2 mM H2A/B or 0.25 mM H3/4 in the sample cell; 25 mM Tris-HCl pH 7.5, 200 mM NaCl; single-site fitting model; conditions: both partners purified

Binder | stoichiometry N [1] | Kd [2] | dH [2] | stoichiometry N [2]
ARB2 domain of Hda1 (Hda1^457–698) (domain or fragment, Saccharomyces cerevisiae, UniProt P53973 457-698, looked up, Hda1 (histone deacetylase), S. cerevisiae, C-terminal ARB2 domain, residues 457-698; Homodimer in the crystal (symmetry-related molecules) and by size-exclusion chromatography; A selenomethionine derivative was used for phasing only; also called Native-Hda1^457–698; wild-type ARB2 domain; source: E. coli BL21 (DE3), purified (Ni-NTA, HiTrap Q FF, Superdex 200)) LQKAIRQQQQHYLSDEFNFVTLPLVSMDLPDNTVLCTPNISESNTIIIVVHDTSDIWAKRNVISGTIDLSSSVIIDNSLDFIKWGLDRKYGIIDVNIPLTLFEPDNYSGMITSQEVLIYLWDNYIKYFPSVAKIAFIGIGDSYSGIVHLLGHRDTRAVTKTVINFLGDKQLKPLVPLVDETLSEWYFKNSLIFSNNSHQCWKENESRKPRKKFGRVLRCDTDGLNNIIEERFEEATDFILDS | 2 | 3.24 ± 0.49 µM | -33.9 kcal/mol | 1.52
ARB2-M1 (residues Gln463, His467 and Asp471 mutated to Ala) (domain or fragment, Saccharomyces cerevisiae, UniProt P53973 457-698, looked up, Hda1, S. cerevisiae, ARB2 domain, residues 457-698, with three substitutions around the groove; source: E. coli BL21 (DE3), purified (Ni-NTA, HiTrap Q FF, Superdex 200)) LQKAIRAQQQAYLSAEFNFVTLPLVSMDLPDNTVLCTPNISESNTIIIVVHDTSDIWAKRNVISGTIDLSSSVIIDNSLDFIKWGLDRKYGIIDVNIPLTLFEPDNYSGMITSQEVLIYLWDNYIKYFPSVAKIAFIGIGDSYSGIVHLLGHRDTRAVTKTVINFLGDKQLKPLVPLVDETLSEWYFKNSLIFSNNSHQCWKENESRKPRKKFGRVLRCDTDGLNNIIEERFEEATDFILDS |  | 9.84 ± 1.48 µM | -7.63 kcal/mol | 0.78
ARB2-M2 (residues Tyr468 and Glu472 mutated to Ala) (domain or fragment, Saccharomyces cerevisiae, UniProt P53973 457-698, looked up, Hda1, S. cerevisiae, ARB2 domain, residues 457-698, with two substitutions around the groove; source: E. coli BL21 (DE3), purified (Ni-NTA, HiTrap Q FF, Superdex 200)) LQKAIRQQQQHALSDAFNFVTLPLVSMDLPDNTVLCTPNISESNTIIIVVHDTSDIWAKRNVISGTIDLSSSVIIDNSLDFIKWGLDRKYGIIDVNIPLTLFEPDNYSGMITSQEVLIYLWDNYIKYFPSVAKIAFIGIGDSYSGIVHLLGHRDTRAVTKTVINFLGDKQLKPLVPLVDETLSEWYFKNSLIFSNNSHQCWKENESRKPRKKFGRVLRCDTDGLNNIIEERFEEATDFILDS |  | 6.93 ± 1.24 µM | -24.1 kcal/mol | 1.1
ARB2-M3 (residues Val481, Ser482, Met483 and Asp484 mutated to Ala) (domain or fragment, Saccharomyces cerevisiae, UniProt P53973 457-698, looked up, Hda1, S. cerevisiae, ARB2 domain, residues 457-698, with four substitutions around the groove; source: E. coli BL21 (DE3), purified (Ni-NTA, HiTrap Q FF, Superdex 200)) LQKAIRQQQQHYLSDEFNFVTLPLAAAALPDNTVLCTPNISESNTIIIVVHDTSDIWAKRNVISGTIDLSSSVIIDNSLDFIKWGLDRKYGIIDVNIPLTLFEPDNYSGMITSQEVLIYLWDNYIKYFPSVAKIAFIGIGDSYSGIVHLLGHRDTRAVTKTVINFLGDKQLKPLVPLVDETLSEWYFKNSLIFSNNSHQCWKENESRKPRKKFGRVLRCDTDGLNNIIEERFEEATDFILDS |  | 8.19 ± 0.72 µM | -20.2 kcal/mol | 0.9
